# T1: Side-VI (Drosophila, UniProt Q0KI85)
# T1 chain: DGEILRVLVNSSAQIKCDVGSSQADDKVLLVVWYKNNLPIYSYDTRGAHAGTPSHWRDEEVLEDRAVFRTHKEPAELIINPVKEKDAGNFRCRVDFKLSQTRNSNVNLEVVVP
# Target: T1, Side-VI
# Experiment: SPR equilibrium, monomer ECD
row,Binder,Kd
1,Beat-Va (protein) LFVTDISVPEIVDFRDNVTLSCSYDMRGHTLNSVKWYKDHEEFFRYSPLTSPIYMTFDVAGLQVLEGKYVCNESSCRLDLSLQGAKSTGLYKCEVSGDAPHFKLADKADNMTVAA,0.76 µM
2,Beat-Vb (protein) LRVTDINVPQIVDFRDNVTLSCSYDISGHTLNSVKWYKNGKEFFRYSPLTPPTYIPFAVEGVQLIDDGNECNESSCRVELNLLGVKSSGVYRCEVSGDAPHFQLTARDANMTVEAL,2.3 µM

# From article PMC5578738 (2017)
